{"source": "the DeepSol protein solubility set", "data": [{"test": "soluble on expression in E. coli; label from the status in PepcDB or PDB records", "values": [{"sequence": "MSSAQRVVITPGEPAGSGPDLVVQLAQRAWPIELVVCADGALLTERAAMLGLPLSLLPYSPDVPAAPQPAGTLTLLPVSLRAPAISGQLTVENGPYVVETLARACDGCLNGEFAALITGPVHKGVINDAGISFTGHTEFFEERSQAKKVVMMLATEELRVALATTHLPLRAIADAITPALLHEVIAILHHDLRTKFGIAEPRILVCGLNPHAGEGGHMGTEEIDTIIPVLDELRAQGMKLNGPLPADTLFQPKYLDNADAVLAMYHDQGLPVLKYQGFGRGVNITLGLPFIRTSVDHGTALELAGRGKADVGSFITALNLAIKMIVNTQ", "soluble on expression in E. coli": "soluble"}, {"sequence": "MSSAQVNGISKRLIVESPNVKLEDGVLESRFTYRKNHFEHRADGLHVTPKEHDYSFKTVLKPRKTGLLLVGLGGNNGSTAVGSIFANQYAMTWRTKEGHSQANYFGSVTQTATVHLGYDSATQNQIFVPFKDIVPILSPNDLIISGWDISDSNLYEAMGRAKVFEPELQEKLRPFMEPIVPLPSIYYPDFIASNQGDRANNVIPGDNKLEHLEHIRADIRKFKQEHELECVIVLWTANTERYTDVRQGLNATADEIMESIRVNEDEVSPSNIFAVASILEGAHYINGSPQNTLVPGLIELAERHKVFVGGDDFKSGQTKFKSAFVDFLVSSGMKPESIVSYNHLGNNDGKNLSEARQFRSKEISKSSVVDDMVKSNQILFPDAKNPDHCVVIKYVPYVADSKRAMDEYICSIFMGGKQTFVVHNTCEDSLLASPLIYDLAILTELASRVSYKVDDEYKPFHSVLSILSLLLKAPVVPPGTPISNAFMRQFSTLTKLVTALAGFPSDTDMQIEFFTQLPAAKSKSQ", "soluble on expression in E. coli": "not soluble"}, {"sequence": "MSSAWKTPRGSDAMPEIMVKIIGSKHFQYLVEKPKIKENDSLKTETQTMHQKPMTDNARQMSRDTPVPINFTDQQTTDNPDDVKEKKHPENNQKSENNQKLLTGANSSRFLDGNIPSQANVHCSSVPTGDQSLSYVHGIPRRKLRDWSLEQMVRGSSDQPEDIGQSPSGTTNEDAFLLALVRRELKSRPLSSNLLEKLQKELKILDPISSGFLLQSQLSRLFLKHEVPLQLPTVKILCQRFSKRGSPEMVNYEKLLWFLNSAASDYPQQNKAAADLRKTESHGTHSQSTPPQHSSSQPEVNRSLLEILKMALRTTNGRLNIDNLNLSFRKEDRSFSGCLPLPKVRAICGKHGLYLTLSLLETLLNHQDLGYQNEIKWQNFVEMLTRASSDLLSDLPTGKNEKKAPAPPMEPEVPEMSQSKTEHMKTPEEELQPESSPAETSACKDPLKPLKIRPVSQPFVNPAVKNKAEECETWIDRFRKLENALYLCDLSNTGVLEKERARRLIHNYNLIYNLSLSPQKIDQALRRFRSGENMLLEPALRYLKEL", "soluble on expression in E. coli": "not soluble"}, {"sequence": "MSSHENDTPLPVPYTSRLGQPLDAGQTLNVHGKINEGAQVAEINLLQGGGEIGPNTQVILHLKLNFKEKKVILNSYENGVWGKEERESLPFQAGQEFDLRIRVLDEGLEISADNKKIHEFKHRLPFQSIEYLSVRGDLSLNGIHWGGRFYKLPWETAFPAGFLEKGQRVHLYGIPKGDRWSLDLVARNQDILFHFNPRIKDKAVVRNSHRNGFWDTEEREGGFPFKKDVGFDLTIVNEEYSIQIFINRERFGTFQHRTQNPIGDYIGLRIDGEVEVTGIEFSH", "soluble on expression in E. coli": "soluble"}, {"sequence": "MSSHHHHHHMQFDVTIEIPKGQRNKYEVDHETGRVRLDRYLYTPMAYPTDYGFIEDTLGDDGDPLDALVLLPQPVFPGVLVAARPVGMFRMVDEHGGDDKVLCVPAGDPRWDHVQDIGDVPAFELDAIKHFFVHYKDLEPGKFVKAADWVDRAEAEAEVQRSVERFKAGTH", "soluble on expression in E. coli": "soluble"}, {"sequence": "MSSKMVKSSEIVGKLNLRAHQEGGFFAETFRDSSVFLSTSQLPPTFKVDRAVSTSIYFLLPSGSVSRLHRIPMAETWHFYLGEPLTVVELYDDGKLKFTCLGPDLFEGDQKPQYTVPPNVWFGSFPTKDVHFSQDGALLKAEARDSENHFSLVGCTCAPAFQFEDFELAKRSDLLSRFPQHESLITMLSYPE", "soluble on expression in E. coli": "soluble"}, {"sequence": "MSSLDNAPLLELDVQEWVNHEGLSNEDLRGKVVVVEVFQMLCPGCVNHGVPQAQKIHRMIDESQVQVIGLHSVFEHHDVMTPEALKVFIDEFGIKFPVAVDMPREGQRIPSTMKKYRLEGTPSIILADRKGRIRQVQFGQVDDFVLGLLLGSLLSETDET", "soluble on expression in E. coli": "soluble"}, {"sequence": "MSSLRRKWISDPAFKVFKKVLPPLSSTEKEAMEAGSVWWDAELFSGKPNFTTLHHYPAPTLTAEEQAFMDNELETLLDMLDDQKIVKEDRDLPPEVWEYLRKERFFSLIISKEYGGREFSALANSTIVSRIATRSISVAVSVMVPNSLGPGELLSHYGTQEQKDYWLPRLADGTDIPCFALTGPEAGSDAGGIPDQGVVCYGMYDGEEVLGVRVSWNKR", "soluble on expression in E. coli": "not soluble"}, {"sequence": "MSSMVEVEHWNTLRLRIYIGENDKWEGRPLYKVIVEKLREMGIAGATVYRGIYGFGKKSRVHSSDVIRLSTDLPIIVEVVDRGHNIEKVVNVIKPMIKDGMITVEPTIVLWVGTQEEIKKFEEDAIAERQ", "soluble on expression in E. coli": "soluble"}, {"sequence": "MSSNVPADMINLRLILVSGKTKEFLFSPNDSASDIAKHVYDNWPMDWEEEQVSSPNILRLIYQGRFLHGNVTLGALKLPFGKTTVMHLVARETLPEPNSQGQRNREKTGESNCCVIL", "soluble on expression in E. coli": "soluble"}, {"sequence": "MSSPTATKYDVFLSFRGLDTRRNFISFLYKELVRRKIRTFKDDKELENGRRISPELKRAIEESKFAVVVVSVNYAASPWCLDELVKIMDFENKGSITVMPIFYGVDPCHLRRQIGDVAEQFKKHEAREEDHEKVASWRRALTSLASISGECSLKWEDEANLVDEIADKISKNLMTVTTISNGRDLVGIDTHMKALNKKLDLNSNKSLRVVGIWARGYNGRSALAKYVYQDICHWLKVGWLKVYQDIKTASKLYVLTRWLKVAHLLHRSHHSFKTE", "soluble on expression in E. coli": "soluble"}, {"sequence": "MSSQKQLEGMIFDVQSFSVHDGPGCRTTVFLNGCPLSCKWCANPESWTVRPHMMFSELSCQYENGCTVCHGKCKNGALSFNLDNKPVIDWNICKDCESFECVNSCYYNAFKLCAKPYTVDELVQVIKRDSNNWRSNGGVTFSGGEPLLQHEFLHEVLLKCHEVNIHTAIETSACVSNEVFNKIFNDIDFAFIDIKHMDREKHKEQTGVYNDLILENISNLANSDWNGRLVLRVPVISGFNDSDENISDIISFMHKNNLVEINLLPFHRLGESKWTQLGKEYEYSDKGDVDEGHLEELQDIFLDNGIACYVGHETAF", "soluble on expression in E. coli": "not soluble"}, {"sequence": "MSSRKRGITPSRDQVRRKKLSIEETDSIEVVCRLCPYTGSTPSLIAIDEGSIQTVLPPAQFRRENAPQVEKVFRFGRVFSENDGQATVFERTSVDLILNLLKGQNSLLFTYGVTGSGKTYTMTGKPTETGTGLLPRTLDVIFNSINNRVEKCIFYPSALNTFEIRATLDAHLKRHQMAADRLSTSREITDRYCEAIKLSGYNDDMVCSVFVTYVEIYNNYCYDLLEDARNGVLTKREIRHDRQQQMYVDGAKDVEVSSSEEALEVFCLGEERRRVSSTLLNKDSSRSHSVFTIKLVMAPRAYETKSVYPTMDSSQIIVSQLCLVDLAGSERAKRTQNVGERLAEANSINQSLMTLRQCIEVLRRNQKSSSQNLEQVPYRQSKLTHLFKNYLEGNGKIRMVICVNPKPDDYDENMSALAFAEESQTIEVKKQVERMPSERIPHSFFTQWNSELDGSVRMEDDGSREIPCPPTFCLTDCNDKDTVDSMYKYARKLSSLQNSSEEGPSSTLLTMIRQYMMEADYQRVEIARLKDSLNDKDEEIKKLRGFCSRYKRENASMKERIASCEQGEQENALVMEKLMEQKMEDRKIIQSQKKAMRNVRGIIDNPSPSVASLRSRFDQENVAHPTAPIQTPPPPYQTPGRAPVFKKRLEATTSTTVMSGSSSGGSGQQGYVNPKYQRRSKSASRLLDHQPLHRVPTGTVLQSRTPANAIRTTKPEMHQLNKSGEYRLTHQEVDDEGNISTNIVKGNVIPTVSGGTAVFFNDIERLTHESPSTRK", "soluble on expression in E. coli": "not soluble"}, {"sequence": "MSSSHLAERHAFSDLSLLSEALAQSVTVTLRNAIERYGKASLVVPGGHTPVVYLPRLAQMDLPWQQVFITLSDERWVEPTSEQSNERLVREHFLQHMQQQPHFIALKTGHIHPDQAITDIDARLAELPQPFSLVILGLGEDGHIASLFPGMALNPDTTSLCQTATPPAAPSLRISLSLHALINSDRIILVITGKEKRQLIDRLIESPDQNIPFVRLMQFKPVELFETD", "soluble on expression in E. coli": "not soluble"}, {"sequence": "MSSTPQFLRWYEQNKPVPYRSVLQEKFEPGQTLIVKGSTIDESQRFTINLHSKTADFSGNDVPLHVSVRFDEGKIVLNSFSNGEWGKEERKSNPIKKGDSFDIRIRAHDDRFQIIVDHKEFKDYEHRLPLSSISHLSIDGDLYLNHVHWGGKYYPVPYESGLANGLPVGKSLLVFGTVEKKAKRFHVNLLRKNGDISFHFNPRFDEKHVIRNSLAANEWGNEEREGKNPFEKGVGFDLVIQNEEYAFQVFVNGERYISFAHRADPHDIAGLQISGDIELSGIQIQ", "soluble on expression in E. coli": "not soluble"}, {"sequence": "MSSVSEVNVDIKDFLMSINLEQYLLHFHESGFTTVKDCAAINDSLLQKIGISPTGHRRRILKQLQIILSKMQDIPIYANVHKTKKNDDPSKDYHVPSSDQNICIELSNSGSVQTSSPPQLETVRKNLEDSDASVERSQYPQSDDKLSPPKRDFPTAEEPHLNLGSLNDSLFGSDNIKIESLITKKTVDHTVEEQQTEKVKLITENLSKLPNADSECLSFVGCSTSGTNSGNGTNGLLEGSPPSPFFKFQGEMIVNDLYVPSSPILAPVRSRSKLVSRPSRSFLLRHRPVPEIPGSTKGVSGSYFRERRNVATSTEKSVAWQNSNEENSSSIFPYGETFLFQRLENSKKRSIKNEFLTQGEALKGEAATATNSFIIKSSIYDNRKEKISEDKVEDIWIPREDKNNFLIDTASESEYSTVEECFQSLRRKNSKASKSRTQKALILDSVNRHSYPLSSTSGNADSSAVSSQAISPYACFYGASAKKVKSGWLDKLSPQGKRMFQKRWVKFDGLSISYYNNEKEMYSKGIIPLSAISTVRVQGDNKFEVVTTQRTFVFRVEKEEERNDWISILLNALKSQSLTSQSQAVVTPEKCGYLELRGYKAKIFTVLSGNSVWLCKNEQDFKSGLGITIIPMNVANVKQVDRTVKQSFEIITPYRSFSFTAETEKEKQDWIEAVQQSIAETLSDYEVAEKIWFNESNRSCADCKAPDPDWASINLCVVICKKCAGQHRSLGPKDSKVRSLKMDASIWSNELIELFIVIGNKRANDFWAGNLQKDEELHMDSPVEKRKNFITQKYKEGKFRKTLLASLTKEELNKALCAAVVKPDVLETMALLFSGADVMCATGDPVHSTPYLLAKKAGQSLQMEFLYHNKFSDFPQHDIHSEGVLSQESSQSTFLCDFLYQAPSAASKLSSEKKLLEETNKKWCVLEGGFLSYYENDKSTTPNGTININEVICLAIHKEDFYLNTGPIFIFEIYLPSERVFLFGAETSQAQRKWTEAIAKHFVPLFAENLTEADYDLIGQLFYKDCHALDQWRKGWFAMDKSSLHFCLQMQEVQGDRMHLRRLQELTISTMVQNGEKLDVLLLVEKGRTLYIHGHTKLDFTVWHTAIEKAAGTDGNALQDQQLSKNDVPIIVNSCIAFVTQYGLGCKYIYQKNGDPLHISELLESFKKDARSFKLRAGKHQLEDVTAVLKSFLSDIDDALLTKELYPYWISALDTQDDKERIKKYGAFIRSLPGVNRATLAAIIEHLYRVQKCSEINHMNAHNLALVFSSCLFQTKGQTSEEVNVIEDLINNYVEIFEVIILYPALVKMVIMSLFANKYLCC", "soluble on expression in E. coli": "soluble"}, {"sequence": "MSSWAKVIYGASTELDAKVVELNVGGQFYTTTMGTLMKHPGSKFSEILSRSARHYKDAQGRFFIDRPGTYFGLLLDYLRTGQVPTEYVPEVYQEAKFYQIHLLVKILEDMPQIFGEQVARTQFLMGVPNYRENLEVLLHLARAEAVAMRSSKVVVCVVRTEEEDAKCVKPLHILEAKKTPVVKFGPWKAGPMTEDFVCCLEKDIRAKGYKVTSQRYYLSRDPYTCFWIFVFTWW", "soluble on expression in E. coli": "not soluble"}]}]}
